Data set [1] relates to HEK293 cells stably transfected with human beta-Klotho. Nature of the data set: HEK293/beta-Klotho Erk phosphorylation assay. The conditions noted are these: without HSA; 12 minutes incubation; AlphaScreen SureFire Phospho-ERK1/2; read-out: pERK-HEK293-Beta-klotho without HSA [EC50 (nM)] Mean Value. It is filed as cell-based. On the procedure: Erk phosphorylation assay was performed in HEK293 cells that were stably transfected with human beta-Klotho. The HEK293T/b-klotho stable cells were seeded at 30000 cells/well on 96-well plates. After two days, fresh media was added, and after 2 hours more the FGF21 proteins were added. The plates were incubated for 12 minutes. And total ERK phosphorylation was assessed using an AlphaScreen SureFire Phospho-ERK1/2 Assay Kit (Perkin Elmer, Waltham, Mass.) according to the manufacturer's instructions and an EnVision Multilabel Microplate Reader Model 2103 (Perkin Elmer) with the AlphaScreen HTS Turbo option was used for signal detection. Data are represented as means+/−S.E.M. EC50 values were determined from a 4-parameter logistic nonlinear regression analysis using GraphPad Prism version 5.02. References: Yie, J. et al.: FGF21 N- and C-termini play different roles in receptor interaction and activation, FEBS Letters 583 (2009) 19-24, and Micanovic R. et al.: Different roles of N- and C-termini in the functional activity of FGF21. J. Cell. Physiol. 2009 May; 219(2):227-34.

Data set [2] has as its system 3T3-L1 adipocytes. Briefly: Potency assay - glucose uptake in 3T3-L1 adipocytes. It is filed as cell-based, mouse. The settings on record: EC50 relative to EC50 of Met-FGF21; 20 hours stimulation, 3H-deoxyglucose tracer. On the procedure:
The following assay was used for determining the biological activity, or potency, of FGF21 compounds of the invention. […] The cells are not allowed to reach confluence and should be passed (transferred to new vials) before reaching approx. 60% of confluency (by visual inspection). For the glucose uptake assay, cells are plated 80,000 cells/well in a 24 well plate, or 20,000 cells/well in a 96 well plate, and when they reach confluency (high density, with a view to have differentiated adipose cells made), the medium is changed from basal medium to basal medium containing Troglitazone, IBMX, Dexamethasone (commercially available from, e.g., Sigma) and human insulin (commercially available from, e.g., Novo Nordisk A/S). The cells are used 7-14, preferably 7-10, days after initiation of differentiation. […] This incubation is terminated by washing twice in ice cold assay buffer. The cells are lysed with Triton X-100 and lysates transferred to a 96 wells plate, microscint-40 (commercially available from, e.g., Perkin Elmer) is added and amount of tracer counted in a TOP-counter (e.g. a Packard top-counter from Perkin Elmer). The EC50 of the polypeptide in question is calculated.

Data set [3] in a line: Pharmacokinetics in mini pig, single intravenous dose. It is filed as in vivo. The settings on record: normal male Göttingen mini pigs, single intravenous dose of 0.1 mg/kg; standard deviation 2.7 hours. On the procedure:
The pharmacokinetic profile of Met-FGF21 can be tested in normal male Göttingen mini pigs, n=4 (8-15 months old, weighing approximately 18-30 kg). The plasma concentration of the compound to be tested is monitored for 14 days. The Met-FGF21 is dosed as a single intravenous dose of 0.1 mg/kg (approximately 5 nmol/kg).
The plasma levels of the FGF21 compounds can be determined using Fibroblast Growth Factor-21 Human ELISA (available from BioVendor, catalogue no. RD191108200R). The PC based software, WinNonLin version 5.2 from Pharsight Corporation, Cary N.C., can be used for the pharmacokinetic calculation.

As a reminder, the EC50 is the concentration that produces a half-maximal response.

In the case of “N-alpha(4-{[2-(2-{2-[2-(2-{2-[(S)-4-Carboxy-4-(17-carboxyheptadecanoylamino)butyrylamino]-ethoxy}ethoxy)acetylamino]ethoxy}ethoxy)acetylamino]methyl}benzyl) [S71C, N121Q, L166F, S167G, M168L, P171L, S172E, Q173A, G174V, Y179F, A180E, des181] Ala-FGF21 [Example 6]”, the EC50 in data set [1] stood at 0.4 nM. The “Glucose uptake 3T3-L1 Potency (%) rel. to Met-FGF21” value in data set [2] turned out to be 352%.
For the molecule “N-alpha-(4-{[2-(2-{2-[2-(2-{2-[(S)-4-carboxy-4-(17-carboxyheptadecanoylamino)butyrylamino]ethoxy}ethoxy)acetylamino]ethoxy}ethoxy)acetylamino]methyl}benzyl) [K56R, K59R, K69R, D102T, D121Q, K122R, L166F, S167G, M168L, G170T] Ala-FGF21 [Example 5]”, in data set [1], the EC50 stood at 1 nM. Moreover, the “Glucose uptake 3T3-L1 Potency (%) rel. to Met-FGF21” value in data set [2] is on record as 100%.
As for “[Q28R, K56R, K59R, K69R, D102T, D121Q, K122R, L166F, S167G, M168L, G170T] Ala-FGF21 [Example 2b]”, the EC50 in data set [1] was determined as 0.8 nM. The “Glucose uptake 3T3-L1 Potency (%) rel. to Met-FGF21” value in data set [2] is 416%.

B1: N-alpha-bis-(4-{[(2-(2-{2-[2-(2-{2-[(S)-4-carboxy-4-(17-carboxyheptadecanoylamino)butyrylamino]ethoxy}ethoxy)acetylamino]ethoxy}-ethoxy)acetylamino]methyl}benzyl) [Arg56, Arg59, Arg69, Arg122] … (conjugate, UniProt Q9NSA1 29-209, looked up, variant K56R K59R K69R K122R)
Fibroblast growth factor 21: HPIPDSSPLLQFGGQVRQRYLYTDDAQQTEAHLEIREDGTVGGAADQSPESLLQLRALRPGVIQILGVRTSRFLCQRPDGALYGSLHFDPEACSFRELLLEDGYNVYQSEAHGLPLHLPGNRSPHRDPAPRGPARFLPLPGLPPALPEPPGILAPQPPDVGSSDPLSMVGPSQGRSPSYAS
modifications: N-terminal Gly; bis fatty diacid-linker benzyl acylation
On to B1, for which, in data set [1], the EC50 stood at 4.6 nM. Further, in data set [2], the “Glucose uptake 3T3-L1 Potency (%) rel. to Met-FGF21” value was found to be 8.5%.

B2: [S71C, N121Q, L166F, S167G, M168L, P171L, S172E, Q173A, G174V, Y179F, A180E, des181] Ala-FGF21 (protein)
chain: AHPIPDSSPLLQFGGQVRQRYLYTDDAQQTEAHLEIREDGTVGGAADQSPESLLQLKALKPGVIQILGVKTCRFLCQRPDGALYGSLHFDPEACSFRELLLEDGYNVYQSEAHGLPLHLPGQKSPHRDPAPRGPARFLPLPGLPPALPEPPGILAPQPPDVGSSDPFGLVGLEAVRSPSFE
Take B2: in data set [2], the “Glucose uptake 3T3-L1 Potency (%) rel. to Met-FGF21” value is recorded as 872%.

B3: [S71C, N121Q, L166F, S167G, M168L, des170, 173aA, G174V, Y179F, A180E, des181] Ala-FGF21 (protein)
chain: AHPIPDSSPLLQFGGQVRQRYLYTDDAQQTEAHLEIREDGTVGGAADQSPESLLQLKALKPGVIQILGVKTCRFLCQRPDGALYGSLHFDPEACSFRELLLEDGYNVYQSEAHGLPLHLPGQKSPHRDPAPRGPARFLPLPGLPPALPEPPGILAPQPPDVGSSDPFGLVPSQAVRSPSFE
Take B3: the “Glucose uptake 3T3-L1 Potency (%) rel. to Met-FGF21” value in data set [2] was found to be 663%.

B4: Met-FGF21 (protein)
chain: MHPIPDSSPLLQFGGQVRQRYLYTDDAQQTEAHLEIREDGTVGGAADQSPESLLQLKALKPGVIQILGVKTSRFLCQRPDGALYGSLHFDPEACSFRELLLEDGYNVYQSEAHGLPLHLPGNKSPHRDPAPRGPARFLPLPGLPPALPEPPGILAPQPPDVGSSDPLSMVGPSQGRSPSYAS
notes: comparative compound
Consider B4, for which the “mean half-life (T1/2)” value in data set [3] was determined as 10.8 h. Also, the “Glucose uptake 3T3-L1 Potency (%) rel. to Met-FGF21” value in data set [2] is 100%.

B5: [K56R, K59R, K69R, K122R] Gly-FGF21 (protein)
chain: GHPIPDSSPLLQFGGQVRQRYLYTDDAQQTEAHLEIREDGTVGGAADQSPESLLQLRALRPGVIQILGVRTSRFLCQRPDGALYGSLHFDPEACSFRELLLEDGYNVYQSEAHGLPLHLPGNRSPHRDPAPRGPARFLPLPGLPPALPEPPGILAPQPPDVGSSDPLSMVGPSQGRSPSYAS
In the case of B5, in data set [2], the “Glucose uptake 3T3-L1 Potency (%) rel. to Met-FGF21” value was 66%.

B6: [N121Q] Ala-FGF21 (protein)
chain: AHPIPDSSPLLQFGGQVRQRYLYTDDAQQTEAHLEIREDGTVGGAADQSPESLLQLKALKPGVIQILGVKTSRFLCQRPDGALYGSLHFDPEACSFRELLLEDGYNVYQSEAHGLPLHLPGQKSPHRDPAPRGPARFLPLPGLPPALPEPPGILAPQPPDVGSSDPLSMVGPSQGRSPSYAS
For the molecule B6, the “Glucose uptake 3T3-L1 Potency (%) rel. to Met-FGF21” value in data set [2] is reported as 116%.

B7: [N121Q] Met-FGF21 (protein)
chain: MHPIPDSSPLLQFGGQVRQRYLYTDDAQQTEAHLEIREDGTVGGAADQSPESLLQLKALKPGVIQILGVKTSRFLCQRPDGALYGSLHFDPEACSFRELLLEDGYNVYQSEAHGLPLHLPGQKSPHRDPAPRGPARFLPLPGLPPALPEPPGILAPQPPDVGSSDPLSMVGPSQGRSPSYAS
On to B7, for which the “Glucose uptake 3T3-L1 Potency (%) rel. to Met-FGF21” value in data set [2] was 119%.

B8: [N121Q, L166F, S167G, M168L, P171L, S172E, Q173A, G174V, Y179F, A180E, des181] Ala-FGF21 (protein)
chain: HPIPDSSPLLQFGGQVRQRYLYTDDAQQTEAHLEIREDGTVGGAADQSPESLLQLKALKPGVIQILGVKTSRFLCQRPDGALYGSLHFDPEACSFRELLLEDGYNVYQSEAHGLPLHLPGQKSPHRDPAPRGPARFLPLPGLPPALPEPPGILAPQPPDVGSSDPFGLVGLEAVRSPSFES
For B8, in data set [1], the concentration for a half-maximal effect (EC50) was 0.7 nM. In data set [2], the “Glucose uptake 3T3-L1 Potency (%) rel. to Met-FGF21” value is on record as 1593%.

B9: [S71C, N121Q, L166F, S167G, M168L, 173aA, G174V, Y179F, A180E, des181] Ala-FGF21 (protein)
chain: AHPIPDSSPLLQFGGQVRQRYLYTDDAQQTEAHLEIREDGTVGGAADQSPESLLQLKALKPGVIQILGVKTCRFLCQRPDGALYGSLHFDPEACSFRELLLEDGYNVYQSEAHGLPLHLPGQKSPHRDPAPRGPARFLPLPGLPPALPEPPGILAPQPPDVGSSDPFGLVGPSQAVRSPSFE
Turning to B9, in data set [2], the “Glucose uptake 3T3-L1 Potency (%) rel. to Met-FGF21” value is reported as 394%.

These data come from patent US9655974B2, “N-terminal modified FGF21 compounds” (Novo Nordisk A/S, priority 2010, dated 2017).
